Laboratory results: article PMC4538830, “CTNNBL1 facilitates the association of CWC15 with CDC5L and is required to maintain the abundance of the Prp19 spliceosomal complex” (Nucleic Acids Research, 2015)
One block for each binder: values may come before it.

Assays:
[1] = biological target: T1, CWC15[80–229] (human, UniProt Q9P013 80-229); test: SEC-MALS; mixture of purified His-CTNNBL1[77–563], CDC5L[1–195] and CWC15[80–229]; conditions: both partners purified
T1 construct: Tag cleaved off by HRV 3C protease for gel filtration, crosslinking and HDX; source: E. coli BL21 Rosetta (DE3)pLysS, purified (Glutathione-Sepharose 4B, HRV 3C cleavage, Resource Q)
T1 sequence (looked up): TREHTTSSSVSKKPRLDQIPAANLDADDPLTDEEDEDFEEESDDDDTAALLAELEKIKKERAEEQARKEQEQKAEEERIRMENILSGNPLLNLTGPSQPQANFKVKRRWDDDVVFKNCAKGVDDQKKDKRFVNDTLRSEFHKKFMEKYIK

[2] = biological target: T2, full-length recombinant His tagged CTNNBL1 (human, UniProt Q8WYA6 1-563); test: pull-down; His-CTNNBL1 (full length or [77–563]) as bait on Ni-NTA resin; 10–20 μg of each purified protein in pull down buffer, 1 h at 4°C; eluates on SDS-PAGE, Instant Blue; conditions: both partners purified
T2 construct: Homotrimer when alone in solution by SEC-MALS (186 kDa); also called His-CTNNBL1; full-length CTNNBL1; source: E. coli BL21 Rosetta (DE3)pLysS, purified (Ni-NTA, Resource Q)
T2 sequence (looked up): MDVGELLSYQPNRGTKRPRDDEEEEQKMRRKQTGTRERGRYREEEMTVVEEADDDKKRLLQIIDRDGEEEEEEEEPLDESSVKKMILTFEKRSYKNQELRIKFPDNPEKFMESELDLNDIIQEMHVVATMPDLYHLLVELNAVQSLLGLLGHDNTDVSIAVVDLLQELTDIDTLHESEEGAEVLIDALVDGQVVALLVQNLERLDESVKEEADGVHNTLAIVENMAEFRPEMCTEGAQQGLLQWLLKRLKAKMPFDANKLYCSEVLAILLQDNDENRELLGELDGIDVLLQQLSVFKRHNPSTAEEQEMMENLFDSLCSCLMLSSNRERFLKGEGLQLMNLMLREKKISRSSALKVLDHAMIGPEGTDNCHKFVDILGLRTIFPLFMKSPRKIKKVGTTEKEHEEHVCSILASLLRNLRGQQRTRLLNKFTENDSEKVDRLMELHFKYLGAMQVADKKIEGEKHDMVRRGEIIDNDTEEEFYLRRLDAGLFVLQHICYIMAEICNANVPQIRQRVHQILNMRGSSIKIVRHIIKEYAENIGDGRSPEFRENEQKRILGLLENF

[3] = biological target: the molecule itself; test: SEC-MALS; CTNNBL1 (full length or [77–563]) alone; also in high salt buffer (0.5 M NaCl) or with CWC15[80–229] added; Supplementary Figure S7

stoichiometry N [1]: 1
B1: CDC5L[1–195] (domain or fragment, human, UniProt Q99459 1-195, looked up)
chain: MPRIMIKGGVWRNTEDEILKAAVMKYGKNQWSRIASLLHRKSAKQCKARWYEWLDPSIKKTEWSREEEEKLLHLAKLMPTQWRTIAPIIGRTAAQCLEHYEFLLDKAAQRDNEEETTDDPRKLKPGEIDPNPETKPARPDPIDMDEDELEMLSEARARLANTQGKKAKRKAREKQLEEARRLAALQKRRELRAAG
notes: Tag cleaved off by TEV protease for gel filtration, crosslinking and HDX; source: E. coli BL21 Rosetta (DE3)pLysS, purified (amylose resin, TEV cleavage, Resource S)

binding result [2]: binds
B2: full-length GST-CWC15 (natural protein, human, UniProt Q9P013 1-229, looked up)
chain: MTTAARPTFEPARGGRGKGEGDLSQLSKQYSSRDLPSHTKIKYRQTTQDAPEEVRNRDFRRELEERERAAAREKNRDRPTREHTTSSSVSKKPRLDQIPAANLDADDPLTDEEDEDFEEESDDDDTAALLAELEKIKKERAEEQARKEQEQKAEEERIRMENILSGNPLLNLTGPSQPQANFKVKRRWDDDVVFKNCAKGVDDQKKDKRFVNDTLRSEFHKKFMEKYIK
notes: source: E. coli BL21 Rosetta (DE3)pLysS, purified (Glutathione-Sepharose 4B)

B3: His-CTNNBL1[77–563] (domain or fragment, human, UniProt Q8WYA6 77-563, looked up)
chain: LDESSVKKMILTFEKRSYKNQELRIKFPDNPEKFMESELDLNDIIQEMHVVATMPDLYHLLVELNAVQSLLGLLGHDNTDVSIAVVDLLQELTDIDTLHESEEGAEVLIDALVDGQVVALLVQNLERLDESVKEEADGVHNTLAIVENMAEFRPEMCTEGAQQGLLQWLLKRLKAKMPFDANKLYCSEVLAILLQDNDENRELLGELDGIDVLLQQLSVFKRHNPSTAEEQEMMENLFDSLCSCLMLSSNRERFLKGEGLQLMNLMLREKKISRSSALKVLDHAMIGPEGTDNCHKFVDILGLRTIFPLFMKSPRKIKKVGTTEKEHEEHVCSILASLLRNLRGQQRTRLLNKFTENDSEKVDRLMELHFKYLGAMQVADKKIEGEKHDMVRRGEIIDNDTEEEFYLRRLDAGLFVLQHICYIMAEICNANVPQIRQRVHQILNMRGSSIKIVRHIIKEYAENIGDGRSPEFRENEQKRILGLLENF
notes: Homotrimer when alone in solution by SEC-MALS (165 kDa); also called N-terminal truncation mutant of CTNNBL1; source: E. coli BL21 Rosetta (DE3)pLysS, purified (Ni-NTA, Resource Q)
stoichiometry N [3]: 3
